Results taken from patent publication US11203633B2, “Polynucleotides encoding antibodies or antigen binding fragments thereof that bind pseudomonas perv” (priority 2011, dated 2021).

Assays:
[1] = test system: P. aeruginosa strains (PAO1, 33356, 6294, 6077, 6206); experiment: Acute pneumonia model in mice, organ burden (CFU in lung, spleen, kidneys); format: in vivo, Pseudomonas aeruginosa
Method: (§1) Antibodies or PBS were administered 24 hours before infection in each model. P. aeruginosa acute pneumonia, keratitis, and thermal injury infection models were performed as described (DiGiandomenico, A., et al., Proc Natl Acad Sci USA 104, 4624-4629 (2007)), with modifications. In the acute pneumonia model, BALB/c mice (The Jackson Laboratory) were infected with P. aeruginosa strains suspended in a 0.05 ml inoculum. In the thermal injury model, CF-1 mice (Charles River) received a 10% total body surface area burn with a metal brand heated to 92° C. for 10 seconds. Animals were infected subcutaneously with P. aeruginosa strain 6077 at the indicated dose. For organ burden experiments, acute pneumonia was induced in mice followed by harvesting of lungs, spleens, and kidneys 24 hours post-infection for determination of CFU.
Organ burden of Pseudomonas-infected mice was also studied in response to administration of V2L2. FIG. 14 (A) Mice were treated with either 1 mg/kg R347 (control), or 1 mg/kg, 0.2 mg/kg, or 0.07 mg/kg of V2L2 and then were infected intranasally with 1.2×10^6 cfu of Pseudomonas 6206. FIG. 14 (B) Mice were also treated with either 15 mg/kg R347 (negative control); 15.0 mg/kg, 5.0 mg/kg, or 1.0 mg/kg mAb166 (positive control); or 5.0 mg/kg, 1.0 mg/kg, or 0.2 mg/kg V2L2 and then were infected intranasally with 5.5×10^6 cfu of Pseudomonas 6206.
The in vivo effect of combination administration of anti-Psl and anti-PcrV binding domains was further studied in mice using the antibodies V2L2 and WapR-004 (RAD). Groups of mice were treated with R347 (2.1 mg/kg—negative control), V2L2 (0.1 mg/kg), W4-RAD (0.5 mg/kg), or V2L2/W4 combination (either 0.1, 0.5, 1.0 or 2.0 mg/kg each). Twenty-four hours post-administration of antibody, all mice were infected with an inoculum containing 5.25×10^5 cfu 6206 (O11-ExoU+). Twenty-four hours post infection, lungs, spleens, and kidneys were harvested, homogenized, and plated for colony forming unit (CFU) identification per gram of tissue.

[2] = test system: P. aeruginosa (6077 exoU+; 6206) lysis of rabbit red blood cells; experiment: Rabbit red blood cell (RBC) lysis inhibition assay; format: cell-based, Pseudomonas aeruginosa; settings: FIG. 12F
Method: Percent inhibition of cytotoxicity analysis was analysed for the parental V2L2 mAb, mAb166 (positive control) and R347 (negative control), where the antibodies were administered to cultured broncho-epithelial cell line A549 combined with log-phase P. aeruginosa strain 6077 (exoU+) at a MOI of approximately 10. A549 lysis was assayed by measuring released lactate dehydrogenase (LDH) activity and lysis in the presence of mAbs was compared to wells without mAb to determine percent inhibition. The V2L2 mAb, mAb166 (positive control) and R347 (negative control) were evaluated for their ability to prevent lysis of RBCs, where the antibodies were mixed with log-phase P. aeruginosa 6077 (exoU^+) and washed rabbit red blood cells (RBCs) and incubated for 2 hours at 37°. Intact RBCs were pelleted and the extent of lysis determined by measuring the OD405 of the cell-free supernatant. Lysis in the presence of anti-PcrV mAbs was compared to wells without mAb to determine percent inhibition. The positive control antibody, mAb166, is a previously characterized anti-PcrV antibody (J Infect Dis. 186: 64-73 (2002), Crit Care Med. 40: 2320-2326 (2012)).

[3] = test system: P. aeruginosa strains 6206 and 6294; experiment: Acute pneumonia model in mice, histological examination of lung tissue; format: in vivo, Pseudomonas aeruginosa
[4] = test system: P. aeruginosa strains (PAO1, 33356, 6294, 6077, 6206, PA103A); experiment: Acute pneumonia model in mice, survival; format: in vivo, Pseudomonas aeruginosa
Method: as §1
The in vivo effect of administration of an anti-PcrV antibodies was studied in mice using an acute pneumonia model. Groups of mice were treated with either increasing concentrations of the V2L2 antibody, a positive control anti-PcrV antibody (mAb166), or a negative control (R347), as shown in FIG. 13 (A-B). Groups of mice were also treated with either increasing concentrations of the V2L2 antibody, the PcrV antibody PcrV-02, or a negative control (R347), as shown in FIG. 13 (C-D). Twenty-four hours after treatment, all mice were infected with 5×10^7 CFU (C) Pseudomonas aeruginosa 6294 (06) or (D) PA103A (O11).
Groups of mice were treated with either increasing concentrations of the 11A6, 3G5 or V2L7, the same concentrations of 29D2, 1F3, 1E6, V2L2, LE10, SH3, 4A8, 2H3, or 21F1, increasing concentrations of the 29D2, increasing concentrations of the V2L2, the PcrV antibody PcrV-02, or a negative control (R347), as shown in FIG. 13 (E-H). Mice were injected intraperitoneally (IP) with mAbs 24 hours prior to intranasal infection with Pseudomonas strain 6077 (1×10^6 CFU/animal).

[5] = strain 6206 intranasal, V2L2 0.07-5 mg/kg, FIG. 14A-B
[6] = Table 5, 6206 5.25×10^5 cfu, R347 2.1 mg/kg, V2L2 0.1 mg/kg, WapR-004 0.5 mg/kg
[7] = Table 6A, strain 6294 1.33×10^7 CFU, 0.2 mg/kg (combination 0.1 mg/kg ea)
[8] = Table 6B, strain 6294 1.7×10^7 CFU, 0.2 mg/kg (combination 0.1 mg/kg ea)
[9] = Table 7, strain 6206 9.25×10^5 CFU, 0.2 mg/kg (combination 0.1 mg/kg ea)

B1: V2L2: anti-PcrV monoclonal antibody; VH SEQ ID NO:216, VL SEQ ID NO:217 (antibody, V domains shown)
VH: EMQLLESGGGLVQPGGSLRLSCAASGFTFSSYAMNWVRQAPGEGLEWVSAITISGITAYYTDSVKGRFTISRDNSKNTLYLQMNSLRAGDTAVYYCAKEEFLPGTHYYYGMDVWGQGTTVTVSS
VL: AIQMTQSPSSLSASVGDRVTITCRASQGIRNDLGWYQQKPGKAPKLVIYSASTLQSGVPSRFSGSGSGTDFTLSISSLQPDDFATYYCLQDYNYPWTFGQGTKVEIK
modifications: V2L2 VH; V2L2 VL
- organ burden ([1]; 6206 (O11-ExoU+) 5.25×10^5 cfu, V2L2 0.1 mg/kg, W4-RAD 0.5 mg/kg, FIG. 15): effective in lowering organ burden
- reduction in organ CFU compared to mAb166 ([1]; strain 6206, similar doses, FIG. 14B): significantly greater reduction in organ CFU than mAb166 at similar doses
- clearance in the kidney [1, 5]: little effect on clearance in the kidney
- dissemination to lung and spleen [1, 5]: greatly reduced dissemination to both the lung and spleen in a dose-dependent manner
- potency in prevention of RBC lysis, V2L2 vs 29D2 [2]: more potent in prevention of RBC lysis than the 29D2
- Inflammatory Infiltrate [3, 6]: PMN 3+
- Involved Lung Surface Area [3, 6]: 55%
- Overall Impression [3, 6]: Broncho interstitial pneumonia
- Overall Impression ([3]; Table 6A, BALB/c mice, strain 6294 1.33×10^7 CFU, 0.2 mg/kg (combination 0.1 mg/kg ea)): Broncho interstitial pneumonia
- Bacteria [3, 7]: Neg-1+
- Hemorrhage (extent) [3, 7]: Extensive
- Inflammatory Infiltrate [3, 7]: PMN 3+
- Involved Lung Surface Area [3, 7]: (57%), mild epithelial injury,
- Overall Impression ([3]; Table 6B, BALB/c mice, strain 6294 1.7×10^7 CFU, 0.2 mg/kg (combination 0.1 mg/kg ea)): Broncho interstitial pneumonia
- Bacteria [3, 8]: Neg
- Inflammatory Infiltrate [3, 8]: PMN 2+
- Involved Lung Surface Area [3, 8]: (30%), mild epithelial injury,
- Overall Impression ([3]; Table 7, BALB/c mice, strain 6206 9.25×10^5 CFU, 0.2 mg/kg (combination 0.1 mg/kg ea)): Broncho interstitial pneumonia
- Inflammatory Infiltrate [3, 9]: PMN 2-3+
- Involved Lung Surface Area [3, 9]: (40%), mild epithelial injury,
- survival ([4]; 6206, Bs3-V2L2 0.28 mg/kg, V2L2 0.2 mg/kg, monitored 120 hours, FIG. 21A): survived
- protection against additional strains ([4]; 6294 and PA103A, 0.04-5 mg/kg, FIG. 13I): protects against additional Pseudomonas strains (i.e., 6294 and PA103A)
- survival ([4]; increasing concentrations 24 hours before infection, strains 6077, 6294, PA103A, FIG. 13A-D): dose-dependent effect on improved survival even out to 168 hours post-infection
- protection compared to mAb166 ([4]; similar doses, strains 6077 and 6294, FIG. 13A-B): significantly more potent protection than mAb166 at similar doses
- protection in vivo ([4]; strain 6077 (1×10^6 CFU/animal) intranasal, mAbs IP 24 hours prior, 11A6, 3G5, V2L7 5 or 1 mg/kg, 29D2 and V2L2 25 mg/kg, FIG. 13E-G): provides protection in vivo
